Patent US20250270314A1 (TAVOTEK BIOTECH SUZHOU, published 2025)
Numbering of substitutions follows the chain as printed.

T1: recombinant human CDH17 (R&D systems) (human, UniProt Q12864 23-787)
T1 construct: Bought recombinant protein coated on the ELISA plate; also called human Cadherin-17
T1 sequence: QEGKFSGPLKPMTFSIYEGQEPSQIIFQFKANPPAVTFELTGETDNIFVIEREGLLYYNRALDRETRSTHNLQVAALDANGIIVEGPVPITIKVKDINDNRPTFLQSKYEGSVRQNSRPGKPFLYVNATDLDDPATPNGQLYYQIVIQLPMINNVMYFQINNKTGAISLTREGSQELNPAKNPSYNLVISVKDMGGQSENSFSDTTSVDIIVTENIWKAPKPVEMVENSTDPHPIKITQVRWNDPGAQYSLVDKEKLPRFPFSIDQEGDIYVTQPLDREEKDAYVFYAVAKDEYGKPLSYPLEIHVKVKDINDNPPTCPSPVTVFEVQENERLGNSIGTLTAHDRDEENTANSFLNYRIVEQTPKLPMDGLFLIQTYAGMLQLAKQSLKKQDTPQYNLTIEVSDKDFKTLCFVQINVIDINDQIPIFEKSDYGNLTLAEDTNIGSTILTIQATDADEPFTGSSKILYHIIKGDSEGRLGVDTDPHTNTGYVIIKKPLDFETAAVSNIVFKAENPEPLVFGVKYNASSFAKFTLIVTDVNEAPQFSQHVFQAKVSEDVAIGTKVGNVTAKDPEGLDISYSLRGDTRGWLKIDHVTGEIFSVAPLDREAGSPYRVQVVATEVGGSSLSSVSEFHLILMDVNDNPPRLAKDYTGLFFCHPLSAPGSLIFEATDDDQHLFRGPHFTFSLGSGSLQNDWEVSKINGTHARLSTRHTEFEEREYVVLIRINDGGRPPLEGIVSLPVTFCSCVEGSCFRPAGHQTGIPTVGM

T2: human CDH17 on AGS gastric cancer cells and AsPC-1 pancreatic cancer cells (human, UniProt Q12864 23-832)
T2 construct: Native CDH17 on the surface of cancer cell lines; also called CDH17 expressing AGS cells; CDH17 expressing AsPC-1 pancreatic cancer cells
T2 sequence: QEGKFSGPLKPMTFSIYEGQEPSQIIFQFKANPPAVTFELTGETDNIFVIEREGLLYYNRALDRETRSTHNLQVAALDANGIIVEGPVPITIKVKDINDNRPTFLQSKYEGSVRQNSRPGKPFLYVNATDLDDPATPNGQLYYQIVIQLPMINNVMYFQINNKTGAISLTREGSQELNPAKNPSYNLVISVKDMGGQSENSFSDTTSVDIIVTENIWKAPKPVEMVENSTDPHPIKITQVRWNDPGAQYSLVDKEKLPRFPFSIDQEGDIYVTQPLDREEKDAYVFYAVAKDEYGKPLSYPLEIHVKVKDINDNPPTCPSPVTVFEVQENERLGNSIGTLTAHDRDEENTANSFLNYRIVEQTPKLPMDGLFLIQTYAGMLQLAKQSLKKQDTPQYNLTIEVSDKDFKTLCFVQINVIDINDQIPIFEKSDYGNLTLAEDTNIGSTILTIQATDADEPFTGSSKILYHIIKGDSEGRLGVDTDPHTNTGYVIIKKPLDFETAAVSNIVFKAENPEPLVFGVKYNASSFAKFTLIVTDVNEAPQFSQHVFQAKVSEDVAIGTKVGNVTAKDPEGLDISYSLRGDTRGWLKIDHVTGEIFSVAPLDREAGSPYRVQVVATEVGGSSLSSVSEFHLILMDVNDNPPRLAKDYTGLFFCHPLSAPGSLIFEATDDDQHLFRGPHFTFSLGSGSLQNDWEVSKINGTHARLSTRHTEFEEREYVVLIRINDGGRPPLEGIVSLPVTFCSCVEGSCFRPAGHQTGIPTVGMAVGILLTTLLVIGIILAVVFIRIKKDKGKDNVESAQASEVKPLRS

B1: VHO v358 (VHH)
VHH: EVQLLESGGGLVQPGGSLRLSCAASGFTFSDYWMSWVRQAPGKGLEWVSNISGDGGSTYYADSVKGRFTISRDNSKNTLYLQMNSLRAEDTAVYYCAKTTDLLQGAFDYWGQGTLVTVSS
notes: Variable-heavy-only (VHO) single domain; also called TS00358
B2: VHO v366 (VHH)
VHH: EVQLLESGGGLVQPGGSLRLSCAASGFTFSDYWMSWVRQAPGKGLEWVSNINGDGGSTYYADSVKGRFTISRDNSKNTLYLQMNSLRAEDTAVYYCAKTSTFYKQDKFDYWGQGTLVTVSS
notes: Variable-heavy-only (VHO) single domain; also called TS00366
B3: VHO v364 (VHH)
VHH: EVQLLESGGGLVQPGGSLRLSCAASGFTFSDYWMSWVRQAPGKGLEWVSNISGSGGSTYYADSVKGRFTISRDNSKNTLYLQMNSLRAEDTAVYYCAKTSDWLLHDADLHFDYWGQGTLVTVSS
notes: Variable-heavy-only (VHO) single domain; also called TS00364; CDH17-VHO364
B4: VHO v363 (VHH)
VHH: B3 VHH with D31T, G53Q, S54D, S100T, L104Q, H105D, D106K, A107V, L109E, H110A
notes: Variable-heavy-only (VHO) single domain; also called TS00363
B5: CDH17 v4 (antibody, V domains shown)
VH: EVQLQQSVAELVKPGASVKMSCKVSGYTLTDHTIHWMKQRPEQGLEWIGYIYPRDGITGYNEKFKGKATLTADTSSSTAYMQLNSLTSEDSAVYFCARWGYSYRNYAYYYDYWGQGTTLTVSS
VL: DIVMTQSQKFMSTTVGDRVNITCKASQNVGTAVAWYQQKPGQSPKLLIYSASNRYTGVPDRFTGSGSGTDFTLTITNMQSKDLADYFCQQYSSYPWTFGGGTKLEIK
notes: typical human IgG heavy and light chain bands on SDS-PAGE
B6: CDH17 v6 (antibody, V domains shown)
VH: QVQLQQSDAELVKPGASVKISCKVSGYTFTDHTIHWMKQRPEQGLEWIGYIYPRDVITQYNEKFKGKATLTADKSSSTAYMQLNSLTSEDSAVYLCARWGYFYGSRSYYFDYWGQGTTLTVSS
VL: B5 VL
notes: as for B5
B7: CDH17 v2 (antibody, human IgG1, V domains shown)
VH: QVQLVQSGAEVKKPGSSVKVSCKVSGYTFTDHTIHWMKQRPGQGLEWIGYIYPRDVITQYNEKFKGKVTLTADKSTSTAYMELSSLRSEDTAVYLCARWGYFYGSRSYYFDYWGQGTTVTVSS
VL: DIVMSQSPSSLAVSVGEKVTMSCKSSQSLLHSSNQKNYLAWYQQKPGQSPKVLIYWASTRESGVPDRFTGSGSGTDFTLTITSVKSEDLAVYYCQQYYSYPWTFGGGTRLEIK
notes: described as human IgG1 monoclonal antibody; also called anti-CDH17 v2
B8: CDH17 v5 (antibody, V domains shown)
VH: B7 VH
VL: B5 VL
notes: as for B5
B9: CDH17 v3 (antibody, V domains shown)
VH: B6 VH
VL: B7 VL
notes: as for B5

biological target: T1, recombinant human CDH17 (R&D systems); assay: ELISA, recombinant human CDH17
Protocol: (§1) ELISA-based binding assay was employed to evaluate the binding to CDH17 by anti-CDH17 antibodies. In this assay, 100 μL of […] recombinant human CDH17 (R&D systems) was coated on an ELISA plate. Increasing concentrations of masked and reference mAbs were applied on the plate and their binding to the recombinant human proteins were detected by HRP-conjugated anti-human secondary antibody. […] The expressed anti-CDH17 mAbs had potent binding to CDH17. The anti-CDH17 were tested for binding to AGS gastric cancer cells and AsPC-1 pancreatic cancer cells.

Binder	binding result
B1	binds
B2	binds
B3	binds
B4	binds

biological target: T1, recombinant human CDH17 (R&D systems); assay: ELISA, plate coated with recombinant human CDH17
Protocol: as §1

Binder	binding result
B5	binds
B6	binds
B7	binds
B8	binds
B9	binds

biological target: T2, human CDH17 on AGS gastric cancer cells …; assay: flow cytometry on AGS and AsPC-1 cells

Binder	binding result
B1	binds
B2	binds
B3	binds
B4	binds
